Assay results taken from the supplement of paper PMC9112550, “Optimization of the antimicrobial peptide Bac7 by deep mutational scanning” (BMC Biology, 2022).

Test system: Escherichia coli TOP10
Assay: shrunken log2 fold change of peptide-encoding DNA abundance (4.5 h post-induction vs induction); higher = less antimicrobial activity (less host growth inhibition)
Conditions: time post-induction: 4.5 h; library: site-saturation at positions 5, 18, 19, 20
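Further: peptides expressed intracellularly from a pBAD plasmid library in pooled LB shake-flask culture, induced with 0.3% L-arabinose, DNA abundance read by NGS, three biological replicates, DESeq2 with apeglm shrinkage.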

Sequence | shrunken log2 fold change
RRIRKRPPRLPRPRPRPSVNPRP | -0.0205
RRIRTRPPRLPRPRPRPSKYPRP | 0.557
RRIRYRPPRLPRPRPRPWRVPRP | 0.0112
RRIRVRPPRLPRPRPRPPILPRP | -0.313
RRIRNRPPRLPRPRPRPWPHPRP | -0.0312
RRIRDRPPRLPRPRPRPNKPPRP | -0.0743
RRIRSRPPRLPRPRPRPAITPRP | -0.0725
RRIRHRPPRLPRPRPRPLVAPRP | -0.103
RRIRWRPPRLPRPRPRPYNLPRP | -0.991
RRIRCRPPRLPRPRPRPTNDPRP | -0.218
RRIRDRPPRLPRPRPRPFHWPRP | -0.0944
RRIRLRPPRLPRPRPRPWKAPRP | -0.0344
RRIRGRPPRLPRPRPRPYGWPRP | -0.0363
RRIRSRPPRLPRPRPRPGTMPRP | -0.315
RRIRKRPPRLPRPRPRPPHMPRP | 0.208
RRIRYRPPRLPRPRPRPNRAPRP | -0.0548
RRIRPRPPRLPRPRPRPSCRPRP | -0.129
RRIRHRPPRLPRPRPRPNGNPRP | -0.617
RRIRHRPPRLPRPRPRPGRQPRP | -0.0906
RRIRTRPPRLPRPRPRPNSDPRP | -0.0311
RRIRFRPPRLPRPRPRPMIDPRP | -0.209
RRIRARPPRLPRPRPRPADVPRP | 0.118
RRIRIRPPRLPRPRPRPHDHPRP | -0.174
RRIRRRPPRLPRPRPRPNGEPRP | 0.43
RRIRHRPPRLPRPRPRPYENPRP | -0.0765

Sequence | shrunken log2 fold change
RRIRPRPPRLPRPRPRPEFFPRP | -0.00122
RRIRFRPPRLPRPRPRPNMPPRP | -0.443
RRIRCRPPRLPRPRPRPQCWPRP | 0.0604
RRIRCRPPRLPRPRPRPRQAPRP | 0.00566
RRIRYRPPRLPRPRPRPFSIPRP | -0.000407
RRIRNRPPRLPRPRPRPANLPRP | -0.342
RRIRYRPPRLPRPRPRPMSKPRP | 3.29
RRIRIRPPRLPRPRPRPWYCPRP | -0.0341
RRIRIRPPRLPRPRPRPFSSPRP | -0.181
RRIRWRPPRLPRPRPRPFMQPRP | -0.261
RRIRLRPPRLPRPRPRPHIIPRP | 0.0077
RRIRCRPPRLPRPRPRPDTEPRP | -0.0455
RRIRKRPPRLPRPRPRPWRGPRP | 0.155
RRIRDRPPRLPRPRPRPVFLPRP | -0.208
RRIRHRPPRLPRPRPRPDMIPRP | -0.0018
RRIRRRPPRLPRPRPRPRHDPRP | 0.0104
RRIRNRPPRLPRPRPRPDGPPRP | 0.01
RRIRNRPPRLPRPRPRPHPPPRP | 0.304
RRIRDRPPRLPRPRPRPHKFPRP | -0.122
RRIRSRPPRLPRPRPRPMTMPRP | -0.245
RRIRMRPPRLPRPRPRPLNIPRP | -0.163
RRIRIRPPRLPRPRPRPRRWPRP | 0.592
RRIRARPPRLPRPRPRPHNSPRP | 1.18
RRIRKRPPRLPRPRPRPMAKPRP | 0.545
RRIRGRPPRLPRPRPRPRYMPRP | -0.0195

Sequence | shrunken log2 fold change
RRIRQRPPRLPRPRPRPLERPRP | 0.0228
RRIRQRPPRLPRPRPRPIVAPRP | -0.00611
RRIRNRPPRLPRPRPRPVTRPRP | -0.124
RRIRARPPRLPRPRPRPAGGPRP | 0.678
RRIRSRPPRLPRPRPRPKDAPRP | 0.22
RRIRERPPRLPRPRPRPDGSPRP | 0.0355
RRIRKRPPRLPRPRPRPQSAPRP | 0.319
RRIRMRPPRLPRPRPRPDATPRP | 3.93
RRIRQRPPRLPRPRPRPWLEPRP | 0.0751
RRIRCRPPRLPRPRPRPDKVPRP | -0.224
RRIRMRPPRLPRPRPRPHYVPRP | -0.0815
RRIRERPPRLPRPRPRPICGPRP | 0.0966
RRIRDRPPRLPRPRPRPMFMPRP | 0.169
RRIRDRPPRLPRPRPRPTGEPRP | 0.119
RRIRCRPPRLPRPRPRPSIQPRP | -0.655
RRIRTRPPRLPRPRPRPFFTPRP | -0.118
RRIRCRPPRLPRPRPRPSSIPRP | -0.565
RRIRIRPPRLPRPRPRPWSYPRP | -0.427
RRIRDRPPRLPRPRPRPEVVPRP | -0.00213
RRIRFRPPRLPRPRPRPMLGPRP | -0.055
RRIRIRPPRLPRPRPRPWCPPRP | 0.0944
RRIRPRPPRLPRPRPRPSIQPRP | -0.696
RRIRCRPPRLPRPRPRPNDSPRP | -0.221
RRIRVRPPRLPRPRPRPGACPRP | 0.0218
RRIRTRPPRLPRPRPRPYVEPRP | -1.12
